Data reported in patent US20200155714A1, “DUAL-TARGET IMAGING MOLECULAR PROBE, PREPARATION METHOD THEREFOR, AND APPLICATIONS THEREOF” (PEKING UNION MEDICAL COLLEGE HOSPITAL, CHINESE ACADEMY OF …, priority 2017, published 2020).

Design: species or system mice
Details: mouse, in vivo
From the text: {circumflex over (4)} Biodistribution of ^68Ga-NOTA-3PEG4-TATE-RGD in Healthy Mice
There was small amount of uptake in the heart, liver and lungs, which decreased quickly over time.

SMILES: CC(O)[C@@H]1NC(=O)[C@H](CCCCN)NC(=O)[C@@H](Cc2c[nH]c3ccccc23)NC(=O)[C@H](Cc2ccc(O)cc2)NC(=O)[C@@H](NC(=O)[C@@H](Cc2ccccc2)NC(=O)COCCOCCOCCOCCNC(=O)C(CCC(=O)NCCOCCOCCOCCOCC(=O)NCCCC[C@@H]2NC(=O)[C@@H](Cc3ccc(O)cc3)NC(=O)[C@H](CC(=O)O)NC(=O)CNC(=O)[C@H](CCCNC(=N)N)NC2=O)NC(=O)COCCOCCOCCOCCNC(=S)Nc2ccc(CC3CN(CC(=O)O)CCN(CC(=O)O)CCN3CC(=O)O)cc2)CSSC[C@@H](C(=O)N[C@H](C(=O)O)[C@@H](C)O)NC1=O (stereo partly drawn) [^68Ga-NOTA-3PEG4-TATE-RGD, metal not drawn]
- clearance from blood, heart and liver: cleared from the blood, heart and liver faster
- distribution in brain tissues / blood-brain barrier passage: could not pass through the blood-brain barrier
- route of excretion: mainly excreted through the kidneys
